Results as given in patent US20220033501A1 (SHANGHAI PHARMAEXPLORER, published 2022).
Residue numbers refer to the chain shown, from its start. Values belong to the binder of their own block, whether it stands above or below them.

Key:
[1] = target: T1, human TIM-3 protein on human PBMC (human, UniProt Q8TDQ0 22-301); assay: cell-based or functional assay
T1 sequence: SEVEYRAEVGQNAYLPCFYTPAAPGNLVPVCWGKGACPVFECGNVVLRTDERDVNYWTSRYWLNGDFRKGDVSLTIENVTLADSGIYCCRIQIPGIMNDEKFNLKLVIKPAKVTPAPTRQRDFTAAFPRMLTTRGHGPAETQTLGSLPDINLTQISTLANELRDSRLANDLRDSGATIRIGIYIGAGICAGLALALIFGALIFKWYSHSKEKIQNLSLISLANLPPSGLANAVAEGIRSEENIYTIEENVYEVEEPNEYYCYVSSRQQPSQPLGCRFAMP

[2] = target: T2, human TIM-3 ECD (antigen protein of the affinity test) (human, UniProt Q8TDQ0 22-200); assay: AHC sensor kinetics, antibody captured on sensor, antigen protein in solution, global 1:1 fit
T2 sequence: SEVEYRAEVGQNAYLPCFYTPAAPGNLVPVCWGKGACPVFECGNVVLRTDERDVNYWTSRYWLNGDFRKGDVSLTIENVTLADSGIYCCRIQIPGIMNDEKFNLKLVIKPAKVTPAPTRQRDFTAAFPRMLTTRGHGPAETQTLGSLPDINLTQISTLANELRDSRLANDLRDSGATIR
Procedure: First, AHC sensor was selected, and the sensor was balanced with buffer solution for 10 min, then the antibody to be tested was diluted to 5 μg/ml with buffer solution, and the antibody was solidified with the sensor for 3-5 min, with a signal value of 1-2 nm. The sensor was balanced again with buffer solution for 3 minutes, and then the antigen protein was diluted to 100 nM (the highest concentration was tentatively 100 nM) to bind and dissociate the antibody coupled by the sensor. If enough signal value was obtained, the antigen protein was diluted by several concentration gradients to analyze the binding and dissociation of antibody and antigen. At that end of each cycle, the sensor surface was regenerated with 10 mM, pH 1.5 Glycine. The kinetic rate constant needed to be subtracted the blank control, and the data was fitted with the global fit analysis method 1:1 combination model. The dissociation equilibrium rate constant (KD) was calculated according to the following formula: KD=kd/ka.

[3] = target: T3, murine TIM-3 protein with hFc tag (mTIM-3-hFc protein) (mouse; human, UniProt Q8VIM0 29-191); assay: ELISA, coated mTIM-3-hFc
T3 construct: Made in HEK293 cells; also called mouse TIM-3 extracellular domain protein; not shown: human IgG Fc fragment (hFc) of the pCpC vector
T3 chain: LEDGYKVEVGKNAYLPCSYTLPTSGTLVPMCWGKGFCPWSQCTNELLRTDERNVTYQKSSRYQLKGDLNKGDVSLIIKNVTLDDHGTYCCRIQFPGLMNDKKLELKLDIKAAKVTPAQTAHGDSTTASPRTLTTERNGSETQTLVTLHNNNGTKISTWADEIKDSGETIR

B2: fully human TIM-3 antibody 215A8F2 (antibody, human IgG4, V domains shown)
VH: QVQLQQWGAGLLKPSETLSLTCTVYGGSFSGYYWNWIRQPPGKGLEWLGEINHSGSTNYNPSLKRRVTISVDTSKNQFSLKLSSVTAADTAVYYCARVYYYGPFDFWGQGTLVTVSS
VL: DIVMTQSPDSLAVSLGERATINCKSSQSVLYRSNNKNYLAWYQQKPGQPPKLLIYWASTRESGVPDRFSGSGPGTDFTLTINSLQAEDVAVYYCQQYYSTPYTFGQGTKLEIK
notes: also called antibody number 4
IFN-γ production, lymphocyte activation assay (donor Y), antibody 0.1 µg/ml, N = 1 [1]: 2600 pg/mL | IFN-γ production, lymphocyte activation assay (donor Y), antibody 0.1 µg/ml, N = 2 [1]: 2340 pg/mL | IFN-γ production, lymphocyte activation assay (donor Y), antibody 1 µg/ml, N = 1 [1]: 3320 pg/mL | IFN-γ production, lymphocyte activation assay (donor Y), antibody 1 µg/ml, N = 2 [1]: 2560 pg/mL | IFN-γ production, lymphocyte activation assay (donor Y), antibody 10 µg/ml, N = 1 [1]: 3140 pg/mL | IFN-γ production, lymphocyte activation assay (donor Y), antibody 10 µg/ml, N = 2 [1]: 2790 pg/mL | IFN-γ production, lymphocyte activation assay (donor Y), antibody concentration head printed '0' (fifth), N = 1 [1]: 2380 pg/mL | IFN-γ production, lymphocyte activation assay (donor Y), antibody concentration head printed '0' (fifth), N = 2 [1]: 2070 pg/mL | IFN-γ production, lymphocyte activation assay (donor Y), antibody concentration head printed '0' (fourth), N = 1 [1]: 1990 pg/mL | IFN-γ production, lymphocyte activation assay (donor Y), antibody concentration head printed '0' (fourth), N = 2 [1]: 2000 pg/mL | Kd [2]: 0.133 nM | koff [2]: 0.000128 s⁻¹ | kon [2]: 965000 M⁻¹ s⁻¹

B3: fully human TIM-3 antibody 18D2H2 (antibody, human IgG4, V domains shown)
VH: EVQLVESGGDLVQPGGSLRLSCAASGFTFSTYWMTWVRQAPGRGLEWVANIKQDGSAKYYVDSVKGRFTLSRDDAKNSLYLQMNSLRAEDTAVYYCARGSNWFDYWGQGTLVTVSS
VL: ETVMTQSPATLSVSPGERATLSCRANQNVYSNLAWYQQKPGQAPRLLIYDASTRATGFPARFSGSGSGTEFTLTISSLQSEDFAVYYCQQYNNWPLTFGGGTKVEIK
notes: also called antibody number 2
IFN-γ production, lymphocyte activation assay (donor Y), antibody 0.1 µg/ml, N = 1 [1]: 2540 pg/mL | IFN-γ production, lymphocyte activation assay (donor Y), antibody 0.1 µg/ml, N = 2 [1]: 2750 pg/mL | IFN-γ production, lymphocyte activation assay (donor Y), antibody 1 µg/ml, N = 1 [1]: 3110 pg/mL | IFN-γ production, lymphocyte activation assay (donor Y), antibody 1 µg/ml, N = 2 [1]: 2860 pg/mL | IFN-γ production, lymphocyte activation assay (donor Y), antibody 10 µg/ml, N = 1 [1]: 3050 pg/mL | IFN-γ production, lymphocyte activation assay (donor Y), antibody 10 µg/ml, N = 2 [1]: 3130 pg/mL | IFN-γ production, lymphocyte activation assay (donor Y), antibody concentration head printed '0' (fifth), N = 1 [1]: 2130 pg/mL | IFN-γ production, lymphocyte activation assay (donor Y), antibody concentration head printed '0' (fifth), N = 2 [1]: 2050 pg/mL | IFN-γ production, lymphocyte activation assay (donor Y), antibody concentration head printed '0' (fourth), N = 1 [1]: 2200 pg/mL | IFN-γ production, lymphocyte activation assay (donor Y), antibody concentration head printed '0' (fourth), N = 2 [1]: 2240 pg/mL | Kd [2]: 2.58 nM | koff [2]: 0.00313 s⁻¹ | kon [2]: 1.22e+06 M⁻¹ s⁻¹

B5: 57F4E5 fully human TIM-3 antibody (human IgG4, kappa) (antibody, V domains shown)
VH: EVQLVESGGGLVQPGGSLRLSCAASGFTFSSYWMSWVRQAPGKGLEWVANIKQDGSEKYYVDSVKGRFTISRDSAKNSLYLQMNSLRAEDTAMYFCARDSNFFDYWGQGTLVTVSS
VL: B3 VL with N26S, N28S, Y30S, Q38R, D50F, A51S, F58I
binding result [3]: no binding (tested: 66.667 nM)

More lines, in order of falling Kd [2], values ahead:

IFN-γ production, lymphocyte activation assay (donor Y), antibody 0.1 µg/ml, N = 1 [1]: 2890 pg/mL | IFN-γ production, lymphocyte activation assay (donor Y), antibody 0.1 µg/ml, N = 2 [1]: 2900 pg/mL | IFN-γ production, lymphocyte activation assay (donor Y), antibody 1 µg/ml, N = 1 [1]: 3050 pg/mL | IFN-γ production, lymphocyte activation assay (donor Y), antibody 1 µg/ml, N = 2 [1]: 3830 pg/mL | IFN-γ production, lymphocyte activation assay (donor Y), antibody 10 µg/ml, N = 1 [1]: 3520 pg/mL | IFN-γ production, lymphocyte activation assay (donor Y), antibody 10 µg/ml, N = 2 [1]: 3630 pg/mL | IFN-γ production, lymphocyte activation assay (donor Y), antibody concentration head printed '0' (fifth), N = 1 [1]: 1820 pg/mL | IFN-γ production, lymphocyte activation assay (donor Y), antibody concentration head printed '0' (fifth), N = 2 [1]: 2040 pg/mL | IFN-γ production, lymphocyte activation assay (donor Y), antibody concentration head printed '0' (fourth), N = 1 [1]: 2130 pg/mL | IFN-γ production, lymphocyte activation assay (donor Y), antibody concentration head printed '0' (fourth), N = 2 [1]: 2300 pg/mL | Kd [2]: 1.05 nM | koff [2]: 0.0012 s⁻¹ | kon [2]: 1.15e+06 M⁻¹ s⁻¹
B4: fully human TIM-3 antibody 34B6D8 (antibody, human IgG4, V domains shown)
VH: B3 VH with D10G, R43K, G44R, D54G, S56G, A57D, L70I, R72T, D74N, Y105P
VL: EIVMTQSPATLSMSPGERATLSCRASQSVYDNLAWYQQKPGQAPRLLIYGASTRATGIPARFSGSGSGTEFTLTISSLQSEDFALYYCQQYTHWPITFGQGTRLEIK
notes: also called antibody number 5

IFN-γ production, lymphocyte activation assay (donor Y), antibody 0.1 µg/ml, N = 1 [1]: 3150 pg/mL | IFN-γ production, lymphocyte activation assay (donor Y), antibody 0.1 µg/ml, N = 2 [1]: 3220 pg/mL | IFN-γ production, lymphocyte activation assay (donor Y), antibody 1 µg/ml, N = 1 [1]: 3330 pg/mL | IFN-γ production, lymphocyte activation assay (donor Y), antibody 1 µg/ml, N = 2 [1]: 3220 pg/mL | IFN-γ production, lymphocyte activation assay (donor Y), antibody 10 µg/ml, N = 1 [1]: 3340 pg/mL | IFN-γ production, lymphocyte activation assay (donor Y), antibody 10 µg/ml, N = 2 [1]: 3890 pg/mL | IFN-γ production, lymphocyte activation assay (donor Y), antibody concentration head printed '0' (fifth), N = 1 [1]: 2180 pg/mL | IFN-γ production, lymphocyte activation assay (donor Y), antibody concentration head printed '0' (fifth), N = 2 [1]: 2090 pg/mL | IFN-γ production, lymphocyte activation assay (donor Y), antibody concentration head printed '0' (fourth), N = 1 [1]: 2250 pg/mL | IFN-γ production, lymphocyte activation assay (donor Y), antibody concentration head printed '0' (fourth), N = 2 [1]: 2160 pg/mL | Kd [2]: 1.01 nM | koff [2]: 0.00113 s⁻¹ | kon [2]: 1.11e+06 M⁻¹ s⁻¹
B1: fully human TIM-3 antibody 7A4F10 (antibody, human IgG4, V domains shown)
VH: EVQLLESGGGLVQPGGSLRLSCAASGFTFRTHLISWVRQAPGKGLEWVAAITGSGGSTYYADSVKGRFIISRDNSKNTLFLQMNSLRAEDTAVYYCAKDGGSGSYDDFWGQGTLVTVSS
VL: ETVLTQSPVTLSLSPGERATLSCRASQSVGSYLAWYQQKPGQAPRLLIYDASNRATGIPARFSGSGSGTDFTLTISSLEPEDFAVYYCQQRSNWPPTFGQGTKVEIK
notes: also called antibody number 1
